{"source": "patent US20180105835", "about": "“TARGETED RNA KNOCKDOWN AND KNOCKOUT BY TYPE III-A Csm COMPLEXES” (VILNIUS UNIVERSITY, published 2018)", "binders": {"B1": {"name": "jGFP crRNA 40 nt ; jGFP target RNA (coding-strand DNA sequence printed) (ssRNA ; ssRNA)", "RNA 1": "ACGGAAACAUAACCUUCGGGCAUGGCACUCUUGAAAAAGU", "RNA 2": "CAUGACUUUUUCAAGAGUGCCAUGCCCGAAGGUUAU"}}, "target": "StCsm effector complex (Cas10-Csm2-Csm3-Csm4-Csm5, StCsm-40), wild type (Streptococcus thermophilus DGCC8004, UniProt A0A0A7HFE1;A0ABF7SXA0;A0A0A7HIF0;A0ABF7SXA2;A0ABF7SXA3 …)", "test": "EMSA; gel shift, StCsm-40; value only in figure", "conditions": "tags: N-terminal StrepII on Csm2; chain copies: Cas10:1 Csm2:3 Csm3:5 Csm4:1 Csm5:1 (stated); label: 5'-33P", "experimental": "FIGS. 16A-B show in vitro cleavage activity of the StCsm targeted to the GFP transcript. Schematic representation of StCsm bound to the target RNA used for in vitro binding and cleavage assays is presented above the gels. RNA was 5′-end labeled with ³³P as indicated with asterisk. (FIG. 16A) Gel shift assay of RNA binding by StCsm-40. The binding reactions contained the ³³P-labeled GFP RNA (0.5 nM) and StCsm-40 at concentrations indicated by each lane. Samples were analyzed by PAGE under non-denaturating conditions. (FIG. 16B) StCsm-40 cleavage assay. Cleavage reactions were performed at 25° C. for indicated time intervals in the Reaction buffer supplemented with 10 mM Mg-acetate, 8 nM GFP RNA substrate and 160 nM StCsm-40. Samples were analyzed by denaturing PAGE, followed by phosphorimaging. […]\nBinding assays were performed by incubating different amounts of Csm complexes with 0.5 nM of ³²P-5′-labeled NA in the Binding buffer (40 mM Tris, 20 mM acetic acid (pH 8.4 at 25° C.), 1 mM EDTA, 0.1 mg/ml BSA, 10% (v/v) glycerol). […] The Kd for NA binding by Csm-72 and Csm-40 was evaluated assuming the complex concentration at which half of the substrate is bound as a rough estimate of Kd value. For binding competition assay 0.5 nM ³²P-labelled S3/1 RNA was mixed with 0.5-5000 nM of unlabelled competitor NA and 0.3 nM StCsm-40, and analyzed by EMSA.", "data": [{"binder": "B1", "values": [{"measurement": "binding result", "value": "binds"}]}]}
